“And” between values parts separate entries of the source, which are not always exact repeats. Identical values can stand only once.

The text below walks through data of patent US20080025990A1 (Eli Lilly, published 2008).

Experiment [1] has as its target T1, native human IGF-IR on human tumor cells (human, UniProt P08069 31-1367).
T1 construct: whole, on cells; also called endogenous cellular IGF-IR; solubilized IGF-IR (from MCF7 lysate)
The experiment is described as follows: inhibition of 125I-IGF-I binding to MCF7 (breast) cells. On the procedure:
(§1) The anti-IGF-IR antibodies were then tested for blocking of radiolabeled ligand to native IGF-IR on human tumor cells. […] MCF7 human breast cancer cells were seeded into 24 well dishes, and cultured overnight. Sub-confluent monolayers were washed 2-3 times in binding buffer (Iscove's Medium/0.1% BSA) and antibody added in binding buffer. […] The wells were then washed three times with ice-cold PBS/0.1% BSA. Monolayers were then lysed with 200 μl 0.5N NaOH and counted in a gamma counter.

Experiment [2] addresses T1, native human IGF-IR on human tumor cells. The experiment is described as follows: cell-based or functional assay.
Experiment [3] shares this target. Kind of experiment: inhibition of 125I-IGF-I binding to T47D (breast) cells.
Experiment [4] shares this target. The experiment is described as follows: cell-based or functional assay. The source holds these as a separate data set.
Experiment [5] shares this target. The experiment is described as follows: inhibition of 125I-IGF-I binding to BXPC3 (pancreatic) cells.
The target is the same in experiment [6]. The experiment is described as follows: cell-based or functional assay. The source holds these as a separate data set.
Experiment [7] has the same target. The experiment is described as follows: inhibition of 125I-IGF-I binding to HT-29 (colorectal) cells.
Experiment [8] has the same target. Kind of experiment: inhibition of 125I-IGF-I binding to SK-ES1 (Ewing sarcoma) cells.
The target in experiment [9] is recombinant extracellular portion of human IGF-IR (soluble IGF-IR) (human) (UniProt P08069). The experiment is described as follows: inhibition of 125I-IGF-I binding to immobilized IGF-IR, A12 against 2F8.
In experiment [10] the target is T1, native human IGF-IR on human tumor cells. Kind of experiment: inhibition of 125I-IGF-I binding to MCF7 cells (the 3 nM is written at Table 4). The method, then: as §1
Experiment [11] has the same target. Kind of experiment: inhibition of 125I-IGF-I binding to 8226 (myeloma) cells.
Experiment [12] addresses recombinant extracellular portion of human IGF-IR (soluble IGF-IR) (human) (UniProt P08069). The experiment is described as follows: comparison of affinities (BIAcore, Table 3). A general note: In SPR one partner is held on a chip, and binding of the other changes the refractive index at the surface.
In experiment [13] the target is T1, native human IGF-IR on human tumor cells. Kind of experiment: inhibition of 125I-IGF-I binding to OV90 (ovarian) cells.
The target of experiment [14] is recombinant extracellular portion of human IGF-IR (soluble IGF-IR) (human) (UniProt P08069). The experiment is described as follows: inhibition of 125I-IGF-I binding to immobilized human IGF-IR, full IgG; 'Blocking (EC50)'.
Experiment [15] deals with T1, native human IGF-IR on human tumor cells. The experiment is described as follows: inhibition of 125I-IGF-I binding to HPAC (pancreatic) cells.
Experiment [16] deals with recombinant extracellular portion of human IGF-IR (soluble IGF-IR) (human) (UniProt P08069). Kind of experiment: human IGF-IR ELISA, full IgG; column head 'Binding (ED50)', concentration for 50% binding relative to saturation. On the technique in general: ELISA stands for enzyme-linked immunosorbent assay.
Experiment [17] deals with T1, native human IGF-IR on human tumor cells. Kind of experiment: inhibition of 125I-IGF-I binding to MCF7 cells. On the procedure: as §1
Experiment [18] addresses recombinant extracellular portion of human IGF-IR (soluble IGF-IR) (human) (UniProt P08069). Kind of experiment: inhibition of 125I-IGF-I binding to immobilized human IGF-IR, full IgG; 'Blocking (EC50)'; upper end of the printed range 3-6 nM.
Experiment [19] has the same target. Kind of experiment: BIAcore 3000, soluble IGF-IR immobilized on the chip, full IgG.
The target is the same in experiment [20]. The experiment is described as follows: BIAcore binding kinetic analysis.
The target is the same in experiment [21]. Kind of experiment: inhibition of 125I-IGF-I binding to immobilized human IGF-IR, full IgG; 'Blocking (EC50)'; lower end of the printed range 3-6 nM.

B1: antibody A12, full length human IgG1 with lambda light chain (antibody, V domains shown)
VH: EVQLVQSGAEVKKPGSSVKVSCKASGGTFSSYAISWVRQAPGQGLEWMGGIIPIFGTANYAQKFQGRVTITADKSTSTAYMELSSLRSEDTAVYYCARAPLRFLEWSTQDHYYYYYMDVWGKGTTVTVSS
VL: SSELTQDPAVSVALGQTVRITCQGDSLRSYYATWYQQKPGQAPILVIYGENKRPSGIPDRFSGSSSGNTASLTITGAQAEDEADYYCKSRDGSGQHLVFGGGTKLTVLG
notes: also called IMC-A12; mAb A12
For B1, the 50% inhibitory concentration (IC50) in experiment [1] is 3 nM; in experiment [3] it was 6 nM; in [5], 20 nM; in [7], 10 nM; in experiment [8] it was 2 nM; in [10] it was 0.45 µg/mL. The half-inhibitory concentration (IC50) in experiment [11] was 20 nM; in experiment [13], 6 nM; in experiment [14], 0.6 to 1 nM; in experiment [15], 10 nM. The “IC50 of inhibition of IGF-I-stimulated [3H]thymidine incorporation (mitogenesis), MCF7 breast” value in experiment [2] was 6 nM. In experiment [2], the “IC50 of inhibition of mitogenesis, 8226 myeloma” value was found to be 5 nM. In addition, the “IC50 of inhibition of mitogenesis, BT474 breast” value in [2] was determined as 5 nM. Also, the “IC50 of inhibition of mitogenesis, BXPC3 pancreatic” value in [2] was determined as 2 nM. For the same molecule, the “IC50 of inhibition of mitogenesis, HT-29 colorectal” value in experiment [2] amounted to 6 nM. For the same molecule, the “IC50 of inhibition of mitogenesis, SK-ES1 Ewing sarcoma” value in experiment [2] turned out to be 10 nM. Moreover, the “IC50 of inhibition of mitogenesis, T47D breast” value in [2] was found to be 7 nM. Also, the “surface IGF-IR staining of MCF7 cells (mean fluorescence intensity ratio) after 4 hours with A12; untreated cells 35.7, control 1” value in experiment [4] stood at 3.3. The “reduction in IGF-IR surface staining of MCF7 cells after 4 h with 50 nM A12 at 37 C (FACS, mean fluorescence intensity ratio)” value in [6] came to 90%. The fold increase in blocking activity relative to 2F8 in [9] is greater than 3 fold. Besides, the fold higher affinity relative to 2F8 in experiment [12] worked out at 10 fold. In experiment [16], the EC50 was 0.3 nM.

B2: antibody 2F8, full length human IgG1 with lambda light chain (antibody, V domains shown)
VH: B1 VH
VL: SSELTQDPAVSVALGQTVRITCQGDSLRSYYASWYQQKPGQAPVLVIYGKNNRPSGIPDRFSGSSSGNTASLTITGAQAEDEADYYCNSRDNSDNRLIFGGGTKLTVLS
notes: Tested as full IgG1 (human gamma 1 constant region) with full-length lambda light chain; also called IMC-2F8; 2F8 IgG
Consider B2, for which the IC50 in experiment [17] is 30 nM and 4.5 µg/mL; in experiment [18] it was less than 6 nM; in experiment [21], greater than 3 nM. The results for the dissociation constant (Kd) in experiment [19] and in experiment [20] were 0.65 nM and 0.5 to 1 nM, respectively. The EC50 in experiment [16] amounted to 2 nM.

Usually IC50 stands for the concentration that inhibits the measured activity by half. As a reminder, the EC50 is the midpoint of the concentration-response curve. A word on the Kd: it is the concentration at which binding is half-saturated.
